In patent US20240392002A1 (EXELIXIS, published 2024):

Columns and labels:
[1] = biological target: T1, cynomolgus CD3 delta and epsilon heterodimer (cynomolgus, UniProt Q95LI5 22-117; Q95LI8 22-105); assay: BLI, B-body on Fc biosensor, antigen monomer 50 nM to 0.75 nM
T1 construct: untagged monomer of the antigen in solution
Protocol: (§1) More specifically, monovalent binding affinity analysis was performed using the Octet^QK 384 (ForteBio) using Fc biosensors. Unlabeled B-body™ is first bound to the Fc biosensor at a concentration to yield approximately 1 nm response (typically 10 to 50 nM protein). The biosensors are then equilibrated in 10× Kinetic Buffer (ForteBio) to establish a baseline. The untagged monomer of each antigen is contacted with the antibody-coated sensors at concentrations ranging from 50 nm to 0.75 nM. The association response and dissociation were monitored and recorded. The resulting Kₒₙ and Koff was fit using the Octet analysis software.

[2] = biological target: T2, extracellular domain of human ROR1 (human, UniProt Q01973 30-406); assay: BLI, monovalent format, B-body on Fc biosensor, soluble antigen
T2 construct: bought protein; biotinylated in the bivalent assay format; also called Acro Cat. No. RO1-H522y
T2 sequence (Q01973 30-406 limits assumed): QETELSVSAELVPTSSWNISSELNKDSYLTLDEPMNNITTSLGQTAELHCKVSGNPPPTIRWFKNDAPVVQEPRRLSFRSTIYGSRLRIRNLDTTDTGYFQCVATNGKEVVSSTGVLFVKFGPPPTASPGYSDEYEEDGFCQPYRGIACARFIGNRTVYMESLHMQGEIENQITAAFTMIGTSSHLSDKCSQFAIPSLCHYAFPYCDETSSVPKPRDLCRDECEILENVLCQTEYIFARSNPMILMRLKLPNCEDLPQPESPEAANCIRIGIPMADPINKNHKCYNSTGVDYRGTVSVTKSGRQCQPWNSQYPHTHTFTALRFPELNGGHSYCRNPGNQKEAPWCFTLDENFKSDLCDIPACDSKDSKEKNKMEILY
Protocol: as §1
(§2) Monovalent binding analysis was performed as described above and the antibody was captured with an Fc sensor and contacted with the indicated antigen for the association phase followed by a dissociation phase in buffer only.

[3] = biological target: T2, extracellular domain of human ROR1; assay: BLI, bivalent format, biotinylated antigen on streptavidin biosensor, B-body 50 nM to 0.75 nM
Protocol: (§3) Bivalent binding analysis was performed using the Octet^QK 384 (ForteBio) using streptavidin biosensors. Biotinylated antigen was first bound to the streptavidin biosensor at a concentration to yield approximately 1 nm response (typically 10 to 50 nM biotinylated protein). The biosensors were then equilibrated in 10× Kinetic Buffer (ForteBio) to establish a baseline. The 1×2 B-body™ was contacted with the antigen-coated sensors at concentrations ranging from 50 nm to 0.75 nM. The association response and dissociation were monitored and recorded. The resulting Kₒₙ and Koff was fit using the Octet analysis software.

[4] = biological target: T1, cynomolgus CD3 delta and epsilon …; assay: BLI (Octet QK384), monovalent format: B-body captured on Fc biosensor, untagged antigen as analyte
Protocol: as §1

[5] = biological target: T2, extracellular domain of human ROR1; assay: as above
Protocol: as §1, §2

[6] = biological target: T2, extracellular domain of human ROR1; assay: BLI (Octet QK384), bivalent format: biotinylated antigen on streptavidin biosensor, 1x2 B-body as analyte
Protocol: as §3

[7] = biological target: T2, extracellular domain of human ROR1; assay: BLI, monovalent format
Protocol: as §1
(§4) Next, the binding of the antibody to ROR1 and ROR2 was assessed using the monovalent and bivalent BLI binding assessments as described in Example 24.

[8] = biological target: T3, extracellular domain of human ROR2 (human, UniProt Q01974 34-403); assay: BLI, monovalent format
T3 construct: bought protein; biotinylated in the bivalent assay format; also called Acro Cat. No. RO2-H52E5
T3 sequence (Q01974 34-403 limits assumed): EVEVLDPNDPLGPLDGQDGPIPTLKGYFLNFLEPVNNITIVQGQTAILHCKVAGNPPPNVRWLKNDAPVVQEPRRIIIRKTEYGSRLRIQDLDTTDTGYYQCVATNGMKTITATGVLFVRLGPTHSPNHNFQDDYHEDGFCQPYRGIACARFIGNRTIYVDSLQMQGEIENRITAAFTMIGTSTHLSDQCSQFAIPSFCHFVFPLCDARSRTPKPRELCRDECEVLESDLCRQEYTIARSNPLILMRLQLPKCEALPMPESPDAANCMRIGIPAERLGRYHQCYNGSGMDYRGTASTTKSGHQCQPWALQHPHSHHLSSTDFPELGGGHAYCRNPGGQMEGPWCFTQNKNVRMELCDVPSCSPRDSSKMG
Protocol: as §1, §4

[9] = biological target: T1, cynomolgus CD3 delta and epsilon …; assay: BLI, monovalent format, B-body on Fc biosensor
Protocol: as §1

[10] = biological target: T2, extracellular domain of human ROR1; assay: BLI, bivalent format, biotinylated antigen on streptavidin biosensor
Protocol: as §3, §4

[11] = biological target: T3, extracellular domain of human ROR2; assay: as above
Protocol: as §3, §4

[12] = biological target: T2, extracellular domain of human ROR1; assay: BLI (Octet QK384), monovalent format: B-body captured on Fc biosensor, untagged antigen as analyte; remark: listed apart in the source
Protocol: as §1, §2, §4

[13] = biological target: T3, extracellular domain of human ROR2; assay: as above
Protocol: as §1, §2, §4

[14] = biological target: T2, extracellular domain of human ROR1; assay: BLI (Octet QK384), bivalent format: biotinylated antigen on streptavidin biosensor, 1x2 B-body as analyte; remark: listed apart in the source
Protocol: as §3, §4

[15] = biological target: T3, extracellular domain of human ROR2; assay: as above
Protocol: as §3, §4

T1 sequence (Q95LI5 22-117, stated change not applied, chain 1 of 2): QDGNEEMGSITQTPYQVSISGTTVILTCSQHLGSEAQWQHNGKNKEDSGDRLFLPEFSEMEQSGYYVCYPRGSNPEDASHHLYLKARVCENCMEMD
T1 sequence (Q95LI8 22-105, stated change not applied, chain 2 of 2): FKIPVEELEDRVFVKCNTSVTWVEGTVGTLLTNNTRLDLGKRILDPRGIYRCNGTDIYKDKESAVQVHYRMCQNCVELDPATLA

B1: I2-A27 1×2 B-body™ bispecific antibody (ROR1xCD3) (bispecific antibody)
chain 1: DIQMTQSPSSLSASVGDRVTITCRASQSVSSAVAWYQQKPGKAPKLLIYSASSLYSGVPSRFSGSRSGTDFTLTISSLQPEDFATYYCQQYYSSPRTFGQGTKVEIKRTPREPQVYTLPPSRDELTKNQVSLKCLVKGFYPSDIAVEWESNGQPENNYKTTPPVLDSDGSFFLYSKLTVDKSRWQQGNVFSCSVMHEALHNHYTQKSLSLSKSCDKTHTCPPCPAPEAAGGPSVFLFPPKPKDTLMISRTPEVTCVVVDVSHEDPEVKFNWYVDGVEVHNAKTKPREEQYNSTYRVVSVLTVLHQDWLNGKEYKCKVSNKALKAPIEKTISKAKGQPREPQVCTLPPSREEMTKNQVSLSCAVKGFYPSDIAVEWESNGQPENNYKTTPPVLDSDGSFFLVSKLTVDKSRWQQGNVFSCSVMHEALHNHYTQKSLSLSPGK
chain 2: EVQLVESGGGLVQPGGSLRLSCAASGFTFKGYYIHWVRQAPGKGLEWVAAIYPYGGSTDYADSVKGRFTISADTSKNTAYLQMNSLRAEDTAVYYCARVYIYGVFDYWGQGTLVTVSSASPREPQVYTDPPSRDELTKNQVSLTCLVKGFYPSDIAVEWESNGQPENNYKTTPPVLDSDGSFFLYSKLTVDKSRWQQGNVFSCSVMHEALHNHYTQKSLSLSGEC
chain 3: not shown
chain 4: EVQLVESGGGLVQPGGSLRLSCAASGFTFNTYAMNWVRQAPGKGLEWVARIRSKYNNYATYYADSVKGRFSISRDDSKNTAYLQMNSLRAEDTAVYYCVRHGNFGNSYVSWFAYWGQGTLVTVSSASTKGPSVFPLAPSSKSTSGGTAALGCLVKDYFPEPVTVSWNSGALTSGVHTFPAVLQSSGLYSLSSVVTVPSSSLGTQTYICNVNHKPSNTKVDKKVEPPKSC
notes: two ROR sites, one SP34-89 CD3 site; chain 5 is the same as chain 2; also called I2A-27 BC1 1×2
[1]
  Kd: 3 nM
[2]
  Kd: 3.8 nM
[3]
  Kd: 0.71 nM
[4]
  koff: 0.00032 s⁻¹
  kon: 110000 M⁻¹ s⁻¹
[5]
  koff: 0.0026 s⁻¹
  kon: 680000 M⁻¹ s⁻¹
[6]
  koff: 3.5e-05 s⁻¹
  kon: 490000 M⁻¹ s⁻¹

B2: I2-A10 D54E Y55Q 1×2 B-body™ (ROR1/ROR2xCD3) (bispecific antibody)
chain 1: DIQMTQSPSSLSASVGDRVTITCRASQSVSSAVAWYQQKPGKAPKLLIYSASSLQSGVPSRFSGSRSGTDFTLTISSLQPEDFATYYCQQYYYYPGTFGQGTKVEIKRTPREPQVYTLPPSRDELTKNQVSLKCLVKGFYPSDIAVEWESNGQPENNYKTTPPVLDSDGSFFLYSKLTVDKSRWQQGNVFSCSVMHEALHNHYTQKSLSLSKSCDKTHTCPPCPAPEAAGGPSVFLFPPKPKDTLMISRTPEVTCVVVDVSHEDPEVKFNWYVDGVEVHNAKTKPREEQYNSTYRVVSVLTVLHQDWLNGKEYKCKVSNKALKAPIEKTISKAKGQPREPQVCTLPPSREEMTKNQVSLSCAVKGFYPSDIAVEWESNGQPENNYKTTPPVLDSDGSFFLVSKLTVDKSRWQQGNVFSCSVMHEALHNHYTQKSLSLSPGK
chain 2: EVQLVESGGGLVQPGGSLRLSCAASGFTFSSYFIHWVRQAPGKGLEWVAGIYPSEGYTSYADSVKGRFTISADTSKNTAYLQMNSLRAEDTAVYYCARYYVSGMDYWGQGTLVTVSSASPREPQVYTDPPSRDELTKNQVSLTCLVKGFYPSDIAVEWESNGQPENNYKTTPPVLDSDGSFFLYSKLTVDKSRWQQGNVFSCSVMHEALHNHYTQKSLSLSGEC
chain 3: not shown
chain 4: EVQLVESGGGLVQPGGSLRLSCAASGFTFNTYAMNWVRQAPGKGLEWVARIRSKYNNYATYYADSVKGRFSISRDDSKNTAYLQMNSLRAEDTAVYYCVRHGNFGNSYVSWFAYWGQGTLVTVSSASTKGPSVFPLAPSSKSTSGGTAALGCLVKDYFPEPVTVSWNSGALTSGVHTFPAVLQSSGLYSLSSVVTVPSSSLGTQTYICNVNHKPSNTKVDKKVEPPKSC
notes: two ROR sites, one SP34-89 CD3 site; chain 5 is the same as chain 2; also called I2A-10 D54E Y55Q BC1 1×2
[7]
  Kd: 0.46 nM
[8]
  Kd: < 0.001 nM
[9]
  Kd: 3.5 nM
[10]
  Kd: 0.021 nM
[11]
  Kd: 0.003 nM
[4]
  koff: 0.00063 s⁻¹
  kon: 180000 M⁻¹ s⁻¹
[12]
  koff: 0.00023 s⁻¹
  kon: 480000 M⁻¹ s⁻¹
[13]
  koff: < 1e-07 s⁻¹
  kon: 140000 M⁻¹ s⁻¹
[14]
  koff: 1.1e-05 s⁻¹
  kon: 510000 M⁻¹ s⁻¹
[15]
  Kd: 0.0033 nM
  kon: 1.4e+06 M⁻¹ s⁻¹
